Assay results from patent US20170326260A1 (CYTOMX THERAPEUTICS, published 2017).

Key:
[1] = target: parental antibody C225v5; experiment: ELISA; target antibody coated at 1 ug/ml, HRP anti-rabbit IgG, OD 450 nm
Experimental: (§1) The plates were washed with PBS/0.05% Tween 20 (wash butter) and then blocked with PBS/1% BSA for 1 hour at room temperature. The blocking buffer was removed, and the anti-AA antibodies 41, 58, 72 or 85, i.e., antibodies that bind activatable antibodies and/or conjugated activatable antibodies, were added and incubated for 1 hour. The plates were washed with wash buffer and incubated with 50 μl of 1 μg/ml of horseradish peroxidase conjugated donkey anti-rabbit IgG antibody for 1 hour. The plates were washed with wash buffer and 100 μl/well of TMB substrate was added. The reaction was stopped by the addition of 100 μl 1M HCl and the OD 450 nm was measured.

[2] = target: 3954-1204-c225v5 activatable anti-EGFR antibody activated with uPA; experiment: as above
Experimental: as §1

B1: antibody 85-1 (antibody, V domains shown)
VH: QSLEESGGHLVTPGTPLTLTCKASGFSLSSYCMSWVRQAPGKGLEWIGIIGGICSTYYAAWAKGRFTISKTSTTVDLKIASPTTEDTATYFCARPAYNSDPIWGPGTLVTVSS
VL: QVLTQTPSPVSVAVGGTVTINCQASQSVYNNNYLSWYQQKPGQPPKVLIYDAATLASGVSSRFRGSGSGTQFTLTISDVQCDDAATYYCLGEFSCGSADCNAFGGGTEVVVKG
notes: also called clone 85
[1]
  binding result: no binding
[2]
  binding result: no binding
